# Test results reported in patent US10479836B2, “Method for treating pulmonary hypertension with interleukin-5 receptor antibody” (University of Toyama, priority 2015, dated 2019).
# “Also recorded” adds a separate entry of the source.
# B1: H7-2: core fucose-deficient H7 chimeric antibody, human IgG1, with Cys at VL position 87 replaced with Ser (antibody, V domains shown)
# VH: EVQLQQSGAELGKPGTSVKLSCKVSGYNIKNTYIHWVNQRPGKGLEWIGRIDPANGNPIYAEKFKNKATLTADTSSNTAYMQLSQLKSDDTAIYFCAMHRGHSMGPGPYVMDAWGQGASVTVSS
# VL: DIQMTQSPASLSASLGETVTIECRTSEDIYNGLAWYQQKPGKSPQLLIYNANSLHTGVPSRFSGSGSGTQYSLKINSLQSEDVASYSCQQYSNYPFTFGSGTKLEIK
# B2: H7-4: N-linked sugar chain-deficient H7 chimeric antibody, human IgG1 (N297A), with Cys at VL position 87 replaced with Ser (antibody, V domains shown)
# VH: B1 VH
# VL: B1 VL
# B3: KM8808: core fucose-deficient anti-dinitrophenol (DNP) rat/human chimeric antibody, isotype control (antibody, V domains shown)
# VH: EVQLQESGPGLVKPSQSLSLTCSVTGYSITSGYWNWIRKFPGNKMEWIGYISYSGSTYYNPSLKSRISITRDTSKNQFFLQLNSVTTEDTATYYCARWGVRHYFDYWGQGVMATVSS
# VL: DVVMTQTPVSLPVSLGGQASISCRSSQSLANSYGNTYLSWYLQKPGQSPQLLIYRVSNTFSGVPDRFSGSGSGTDFTLKISRVEPEDLGDYYCLQGTHQPYTFGAGTKLELK
# B4: KM6161: N-linked sugar chain-deficient anti-DNP rat/human chimeric antibody containing N297A substitution, isotype control (antibody, V domains shown)
# VH: B3 VH
# VL: B3 VL
# Tested on: eosinophils (CD45-positive, Gr1-negative, Siglec-F-positive cells)
# Assay: IL-33-induced increase of lung eosinophils, FCM of lung cell suspension
# Format: in vivo, mouse
# Settings: IL-5+/+ mice, 100 μg antibody i.p. five times; FCM day 21; FIG. 16
# Description: (§1) In an experimental system similar to that of Example 3, in order to confirm the inhibitory effects of anti-IL-5R antibodies and anti-IL-5 neutralizing antibodies on vascular wall thickening, 100 μg of the H7 (CS) hIgG1 (DF) (H7-2) antibody, the H7 (CS) hIgG1 (N297A) (H7-4) antibody, an anti-IL-5 antibody (ligand-neutralizing antibody, clone name: TRFK5), the anti-DNP antibody KM8808, the anti-DNP antibody KM6161, or rat IgG (clone name: HRPN) was intraperitoneally administered to each IL-5^+/+ mouse a total of five times (3 consecutive days (three times) from two days before the first rIL-33 administration day (day 0), once on the second rIL-33 administration day (day 7), and once on the third rIL-33 administration day (day 14)) (FIG. 15). Then, on day 21, lung tissues were resected and evaluated by FCM and immunofluorescent staining.
# In the FCM, 1×10^6 cells in the lung cell suspension were stained with a PE-Cy7-conjugated anti-CD45 antibody (30-F11), an APC-conjugated anti-Gr1 antibody (RB6-8C5), and a PE-conjugated anti-Siglec-F antibody (E50-2440) (all manufactured by BD Biosciences). CD45-positive, Gr1-negative, and Siglec-F-positive cells were regarded as eosinophils, and the influence of antibody administration was observed.
row,Molecule,inhibition of IL-33-induced increase in the number of eosinophils
1,B1,inhibited almost completely; also recorded: superior in eosinophil growth-inhibiting function
2,B2,at a degree poorer than that of H7-2
3,B3,not inhibited
4,B4,not inhibited

# Same assay, conditions: IL-5+/+ mice, PBS instead of IL-33; 100 μg antibody i.p. five times; lung cells day 21, FCM
row,Molecule,"abundance ratio of eosinophils, in absence of IL-33 (PBS)"
1,B1,0.24%
2,B2,0.17%
3,B3,1.19%
4,B4,0.92%

# Same assay, conditions: IL-5+/+ mice, rIL-33 days 0, 7, 14; 100 μg antibody i.p. five times; lung cells day 21, FCM
row,Molecule,"abundance ratio of eosinophils, in presence of IL-33"
1,B1,1.58%
2,B2,29.1%
3,B3,48.3%
4,B4,52.4%

# Tested on: Y16 cells
# Assay: ADCC activity against Y16 cells with human PBMC effector cells (LDH release)
# Format: cell-based, mouse
# Settings: 4 hrs, 0.0001-1000 ng/mL (control antibodies 1000 ng/mL), FIG. 13
# Description: The H7 recombinant chimeric antibodies prepared in Example 8 were evaluated for their ADCC activity against Y16 cells using frozen human peripheral blood mononuclear cells (PBMCs) (manufactured by AllCells) as effector cells. The frozen human PBMCs were shake-cultured (37° C., 5% CO2, overnight) in RPMI1640 medium containing 5% FBS. The Y16 cells (target cells) and the human PBMCs (effector cells) were washed with ADCC assay medium (RPIM1640 containing 5% dialyzed FBS) and adjusted to cell densities of 2×10^5 cells/mL and 3×10^6 cells/mL, respectively. The cells were washed twice with a medium and then suspended into cell densities of 4×10^5 cells/mL. Each chimeric antibody adjusted to a final concentration of 0.0001, 0.001, 0.01, 0.1, 1, 10, 100, or 1000 ng/mL, the target cells (2×10^4 cells/well), and the effector cells (5×10^5 cells/well) were added in this order at 50 μL/well to a 96-well U-bottom plate. The control antibodies used were the rtDNP-1 hIgG1 (DF) antibody (KM8808) and the rtDNP-1 hIgG1 (N297A) antibody (KM6161) of Example 10 adjusted to a final concentration of 1000 ng/mL. The plate was centrifuged (500 rpm, 5 min) and then left standing in an incubator (37° C., 5% CO2, 4 hrs). The plate was centrifuged (1500 rpm, 5 min) to recover a supernatant at 50 μL/well into a 96-well Flat-bottom plate (manufactured by Sumitomo Bakelite Co., Ltd.). Lactate dehydrogenase (LDH) activity in the supernatant was detected using CytoTox 96 Non-Radioactive Cytotoxicity Assay (manufactured by Promega Corp.). Absorbance at 490 nm was measured using a plate reader SPECTRA MAX 340 PC384 (manufactured by Molecular Devices, LLC). The ADCC activity (%) was calculated according to the following equation using background-corrected measurement values. Cytotoxicity=[[Absorbance of the sample]−[Absorbance derived from spontaneous release from the target cells and the effector cells]]/[[Absorbance derived from total release from the target cells]−[Absorbance derived from spontaneous release from the target cells]]
row,Molecule,ADCC activity against Y16 cells
1,B1,exhibited antibody concentration-dependent ADCC activity
2,B2,none
3,B3,none
4,B4,none

# Tested on: mouse IL-5Rα-expressing cell Y16
# Assay: Antigen binding activity of chimeric antibodies on Y16 cells by FCM
# Format: cell-based
# Settings: FIG. 12
# Description: The chimeric antibodies prepared in Example 8 were evaluated for their antigen binding activity using a mouse-derived cell line Y16 expressing IL-5R. The Y16 cells were washed with SM (staining medium containing 2% FCS, 0.05% NaN3, and 1 mM EDTA in PBS). Then, Mouse BD Fc Block (manufactured by Becton, Dickinson and Company) was added thereto at a concentration of 5 μg/mL, and the mixture was left standing at 4° C. for 30 min. The cells were inoculated at a cell number of 1×10^5 cells/well to a 96-well U-bottom plate, and each chimeric antibody adjusted to a final concentration of 10000, 2500, 625, 156, 39, 10, 2.4, or 0.6 ng/mL was added thereto, followed by reaction at 4° C. for 60 min. The rat/human chimeric control antibodies used were rtDNP-1 hIgG1 (DF) antibody (KM8808) and rtDNP-1 hIgG1 (N297A) antibody (KM6161). The nucleotide sequences and amino acid sequences of the variable regions of each isotype control antibody are shown in SEQ ID NOs: 29 to 34. After washing of the cells with SM, Goat F(ab′)2 Anti-Human IgG PE (γ chain specific) (manufactured by Southern Biotech) diluted 500-fold with SM was added thereto, followed by reaction at 4° C. for 60 min. After washing of the cells with SM, the cells were resuspended in 50 μL of SM. Fluorescence intensity was measured by FCM (flow cytometer FACS Canto II (manufactured by Becton, Dickinson and Company)). The data was analyzed using FlowJo 7.65 (manufactured by Tomy Digital Biology Co., Ltd.) to calculate a Geomean value at each concentration.
row,Molecule,"binding ability to Y16 cells, H7-1 and H7-2 compared"
1,B1,slight rise in binding ability

# Tested on: IL-33-induced vascular wall thickening (SMA-positive cells)
# Assay: IL-33-induced vascular wall thickening, immunofluorescent staining of lung tissue
# Format: in vivo, mouse
# Settings: IL-5+/+ mice, 100 μg antibody i.p. five times; lung tissue day 21
# Description: as §1
# In the immunofluorescent staining, the tissues were sliced into 30 μm, and slides were prepared and then stained with an Alexa 488-conjugated anti-SMA antibody (1A4) (manufactured by Abcam plc) and an Alexa 647-conjugated anti-Siglec-F antibody (E50-2440). The nuclei of the cells were stained with Hoechst 33342 (manufactured by Life Technologies Corp.). Here, the degree of the growth of SMA-positive cells (primary media-constituting cells) was observed.
row,Molecule,inhibition of IL-33-induced vascular wall thickening (immunofluorescent staining)
1,B1,inhibited most strongly; also recorded: vascular wall thickening inhibitory effect superior to H7-4 or the IL-5 ligand-neutralizing antibody
2,B2,at a degree poorer than that of H7-2
3,B3,not observed
4,B4,not observed

# Tested on: Y16 cells
# Assay: IL-5 signal inhibition: rIL-5-dependent Y16 growth inhibition (WST-1)
# Format: cell-based, mouse
# Settings: rIL-5 5 units/mL, 24 hours
# Description: Whether or not the various recombinant chimeric antibodies prepared in Example 8 would have the function of inhibiting IL-5 signals was studied by using Y16 growth inhibition as an index. 2×10^3 Y16 cells were cultured for 24 hours in the presence or absence of rIL-5 (5 units/mL) after addition of the Cys substitution-containing core fucose-unlinked H7 recombinant chimeric antibody H7 (CS) hIgG1 (DF) (H7-2), the N-linked sugar chain-deficient H7 recombinant chimeric antibody H7 (CS) hIgG1 (N297A) (H7-4), and the anti-DNP antibodies KM8808 and KM6161 at a concentration of 0.01, 0.1, 1, or 10 μg/mL. 24 hours later, these antibodies were evaluated for their ability to inhibit growth using Premix WST-1 Cell Proliferation Assay System (manufactured by Takara Bio Inc.). The culture time after addition of the reagent of the cell growth assay kit was set to 1 hour.
row,Molecule,"Y16 growth inhibiting ability, H7-2 and H7-4 compared"
1,B1,equivalent inhibiting ability
2,B2,equivalent inhibiting ability

# Same assay, conditions: rIL-5 5 units/mL, 24 hours, antibody 0.01-10 μg/mL; FIG. 14
row,Molecule,inhibition of Y16 cell growth (IL-5 signal-inhibiting function)
1,B1,inhibited the growth of the Y16 cells in an antibody concentration-dependent manner
2,B2,inhibited the growth of the Y16 cells in an antibody concentration-dependent manner
3,B3,not observed
4,B4,not observed
